B1: ES52: dsRNA trigger SEQ ID NO 113; gene target Hypotethical effector (nucleic acid)
DNA: ATGTTCAAAAAATTTATTTTCCTCTCAAGCCAGGCCTTAATGGTACTTTCGAATCCTCTTTATATTGGTGATAATCATCTTCCGAGCGACCAAAATAATCCGTTCTTAATATCCTATGATTGGAAAGCTGGCTTTACAAGCGAATTCGAACTTCATGATTCCTGCAATGCAACACAGAAAAAACAGCTGCAAGACGGCCTCTCTGACGCTGTGACACTTGCTAGGCATGCTAAAGAACATATTCTTGTGAAGGGAACTGAATCACCCATATATAAGAAATATTTCGGTCAAGGTCCTACAGGATCGGTCCTGGGATGGTATGACAAAATTGCTTCTTCTGACCGAAAAGACATCCTTTTCCGTTGTGATGACCCCGATAAGAATTGCCAAACTCAACCTCAATGGGCTGGACATCACCGCGGAAAAAATGCGTCATTAGAGACAGTGATCTGCGAGCTTTCATTTCTCACTCGGCTTCCACTTGAAGCTC
B2: GS3312 (nucleic acid)
sense: CUGCUGGUAGUGACAAGGGCACAGAACACGUCUGGGAAAUAAGCCAGAGCGUGGGCAUGAUAAUUGGUGGAAUUUUAGAAAAUUUGCUCAUGCUUAUGGGAAAAGUUCCCAGCUUAACGAGGAGGCAAGUACGAUAUAGCUGUAUGACAAGAUACUAUGACUGUAGUAAAGCUAAGAGGCUACUUGGAUAUACACCAGAAGUCCACCUGUGGGAAGGCAUAGAGAGGUCAGUUGCUUGGUUCAAAAAUCAGAGUUAAUUAUCGAAGCCCGAAUGAAUACUUCAUAUUACUAAACUUGCCCGAAUUAAAAUUCUGGCUAGCUUAGUUAUCAAAUAAAAAUUGAUAGUUAAGUUGAUCUUUCAUUGAUGAAUAUAUAAGUACUUAACCUUAUCAUUCAAU
antisense: AUUGAAUGAUAAGGUUAAGUACUUAUAUAUUCAUCAAUGAAAGAUCAACUUAACUAUCAAUUUUUAUUUGAUAACUAAGCUAGCCAGAAUUUUAAUUCGGGCAAGUUUAGUAAUAUGAAGUAUUCAUUCGGGCUUCGAUAAUUAACUCUGAUUUUUGAACCAAGCAACUGACCUCUCUAUGCCUUCCCACAGGUGGACUUCUGGUGUAUAUCCAAGUAGCCUCUUAGCUUUACUACAGUCAUAGUAUCUUGUCAUACAGCUAUAUCGUACUUGCCUCCUCGUUAAGCUGGGAACUUUUCCCAUAAGCAUGAGCAAAUUUUCUAAAAUUCCACCAAUUAUCAUGCCCACGCUCUGGCUUAUUUCCCAGACGUGUUCUGUGCCCUUGUCACUACCAGCAG
B3: GS3310 (nucleic acid)
sense: CGUCGACCUCAAAAGCAGAGAAGUUGGGCGAGUUGAUUAUUGCUUCUACGGAGAAAGCCUGUAUAACUGUAGGUUCGUAGCUUUGAGCAUUCAAAAAUUUGUUGUAAACGAUUUUAGUAGAUGAGUAUUCACUUGGCAAAUGAGAGAUUUGAUCUGCUAUUGUUUGAGCGUCUGCAAAGGUUGGAAUAUCUUUCCCUACGCCAGAGAAACUUAAAACAAUAUUUUUACUACUUGACCGACUCAAUUGUGCCUUAGCCUUCUCUCCCAAUACCACAAUAUCGGCAUUGGGGUUUUCAGAGAGCAUUUUUCGAACGUGUUUACUUAAGCCUGAAUGAAUACCGCCGCACAAUCCUUUAUCUGAGCUUGCAACUACAAUCAAGUACUUUUGGUCAUCUUUU
antisense: AAAAGAUGACCAAAAGUACUUGAUUGUAGUUGCAAGCUCAGAUAAAGGAUUGUGCGGCGGUAUUCAUUCAGGCUUAAGUAAACACGUUCGAAAAAUGCUCUCUGAAAACCCCAAUGCCGAUAUUGUGGUAUUGGGAGAGAAGGCUAAGGCACAAUUGAGUCGGUCAAGUAGUAAAAAUAUUGUUUUAAGUUUCUCUGGCGUAGGGAAAGAUAUUCCAACCUUUGCAGACGCUCAAACAAUAGCAGAUCAAAUCUCUCAUUUGCCAAGUGAAUACUCAUCUACUAAAAUCGUUUACAACAAAUUUUUGAAUGCUCAAAGCUACGAACCUACAGUUAUACAGGCUUUCUCCGUAGAAGCAAUAAUCAACUCGCCCAACUUCUCUGCUUUUGAGGUCGACG
B4: GS3311 (nucleic acid)
sense: CUUCUCGGUAAUUCCGCAACAUUUUUAACCAUGACAUUCCAUUUCGUACAUGCUCUUGAUAUUCCGAUAACGUCAGCCUCUUGAAAUGCAUCACUUCCUAUGGCAGUAGUGGGCACUUGGCCGCAAAAAACUACUAGUGGUGUACCGUCAGAUAGAGCGUCCUGCAUCGGUGUUAUGACAUUUGUUGCACCAGGGCCAGAAGUAACUAGAAUCACCCCAGGAAGUCCACUAGCUCUGGCAUAGCCUUCAGCCAUAUGUCCAGCACCCUGUUCAUGUUUCGGUAGAAUAAAAUCGAAGUGCCUUGAAUUAUAAAUAGCGUCGAAAACGGGAAGAAUUGCUCCACCAGGAUAACCGAAAAUAUGUUUUACACCUUGCCGUAACAUCAUUUCGUGAAAUAU
antisense: AUAUUUCACGAAAUGAUGUUACGGCAAGGUGUAAAACAUAUUUUCGGUUAUCCUGGUGGAGCAAUUCUUCCCGUUUUCGACGCUAUUUAUAAUUCAAGGCACUUCGAUUUUAUUCUACCGAAACAUGAACAGGGUGCUGGACAUAUGGCUGAAGGCUAUGCCAGAGCUAGUGGACUUCCUGGGGUGAUUCUAGUUACUUCUGGCCCUGGUGCAACAAAUGUCAUAACACCGAUGCAGGACGCUCUAUCUGACGGUACACCACUAGUAGUUUUUUGCGGCCAAGUGCCCACUACUGCCAUAGGAAGUGAUGCAUUUCAAGAGGCUGACGUUAUCGGAAUAUCAAGAGCAUGUACGAAAUGGAAUGUCAUGGUUAAAAAUGUUGCGGAAUUACCGAGAAG
B5: GS3313 (nucleic acid)
sense: AUCGUGAAUGGAGCUGUAACUGAAACAACAGCUUUACUAAACGAAAAAUGGGACAAAAUAUUUUACACUGGCAAUACCCAAGUAGGUGUAAUAAUUGCCAAAAAAGCUGCAGAAACUCUUACACCAGUUUGCUUAGAGCUCGGGGGAAUCAAUCCGGCAAUCAUUACGAAAAAUGCAGACCCAUACCUUGCUGCUCGUCGGCUAUUAUGGGGUAAACUAAUGAAUGCUGGACAAGUUUGCAUCAGUCAAAAUUAUAUUCUUGUCGAACAAGAAGUUUUACCAAUUUUCGUAGAGCAUUUGAAAAACACUCUAAAUGAAUUCUAUCCAAAUGGUAUAAGAAAUAGUCCAGAUUUUGGAAGGAUAGUCAAUCAGCGUCAUUUUUCUAGAAUUAAAAAAAU
antisense: AUUUUUUUAAUUCUAGAAAAAUGACGCUGAUUGACUAUCCUUCCAAAAUCUGGACUAUUUCUUAUACCAUUUGGAUAGAAUUCAUUUAGAGUGUUUUUCAAAUGCUCUACGAAAAUUGGUAAAACUUCUUGUUCGACAAGAAUAUAAUUUUGACUGAUGCAAACUUGUCCAGCAUUCAUUAGUUUACCCCAUAAUAGCCGACGAGCAGCAAGGUAUGGGUCUGCAUUUUUCGUAAUGAUUGCCGGAUUGAUUCCCCCGAGCUCUAAGCAAACUGGUGUAAGAGUUUCUGCAGCUUUUUUGGCAAUUAUUACACCUACUUGGGUAUUGCCAGUGUAAAAUAUUUUGUCCCAUUUUUCGUUUAGUAAAGCUGUUGUUUCAGUUACAGCUCCAUUCACGAU

System: E. necator
Assay: Leaf disc assay, dry inoculum (settling tower), decrease in disease severity / hyphal growth (Example 2)
Details: decrease in disease severity (hyphal growth) relative to untreated control, value ± SE; for % decrease =/− SE TP1: time point 1 (untreated control hyphal growth ≥50%); for % decrease =/− SE TP2: time point 2

Row | Molecule | % decrease =/− SE TP1 [%] | % decrease =/− SE TP2 [%]
1 | B1 | 6 ± 1 | 6 ± 2
2 | B2 | 13 ± 4 | 19 ± 6
3 | B3 | 22 ± 8 | 11 ± 8
4 | B4 | 29 ± 7 | 24 ± 7
5 | B5 | 9 ± 9 | 13 ± 9
